This note sets out measurements from publication PMC4873975 (2016).

The target in test [1] is T1, FcɛRIα (recombinant, soluble) (human, UniProt P12319 26-205).
T1 chain: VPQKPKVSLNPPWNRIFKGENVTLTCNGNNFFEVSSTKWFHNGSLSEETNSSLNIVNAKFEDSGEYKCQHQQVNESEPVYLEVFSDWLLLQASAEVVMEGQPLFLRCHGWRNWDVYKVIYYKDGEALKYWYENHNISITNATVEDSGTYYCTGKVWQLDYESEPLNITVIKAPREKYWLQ
The test is described as follows: SPR; mammalian-derived IgE-Fc3-4.

The target of test [2] is T1, FcɛRIα (recombinant, soluble). Nature of the test: SPR; insect-derived IgE-Fc3-4.
For test [3] the target is unchanged. Nature of the test: SPR; mammalian-derived IgE-Fc3-4.
For test [4] the target is unchanged. Nature of the test: SPR; insect-derived IgE-Fc3-4.
Test [5] shares this target. The test is described as follows: SPR; mammalian-derived.
Test [6] has the same target. Nature of the test: SPR; mammalian-derived.

B1: IgE-Fc3–4 (wild type) (domain or fragment)
chain: CADSNPRGVSAYLSRPSPFDLFIRKSPTITCLVVDLAPSKGTVNLTWSRASGKPVNHSTRKEEKQRNGTLTVTSTLPVGTRDWIEGETYQCRVTHPHLPRALMRSTTKTSGPRAAPEVYAFATPEWPGSRDKRTLACLIQNFMPEDISVQWLHNEVQLPDARHSTTQPRKTKGSGFFVFSRLEVTRAEWEQKDEFICRAVHEAASPSQTVQRAVSVNPGK
For B1, the koff came out at 0.00102 s⁻¹ in test [1] and 0.000946 s⁻¹ in test [2]. In addition, the Kd came out at 0.933 nM in test [3] and 0.66 nM in test [4].

B2: IgE-R419N-Fc3–4 (domain or fragment)
chain: CADSNPRGVSAYLSRPSPFDLFIRKSPTITCLVVDLAPSKGTVNLTWSRASGKPVNHSTRKEEKQRNGTLTVTSTLPVGTRDWIEGETYQCNVTHPHLPRALMRSTTKTSGPRAAPEVYAFATPEWPGSRDKRTLACLIQNFMPEDISVQWLHNEVQLPDARHSTTQPRKTKGSGFFVFSRLEVTRAEWEQKDEFICRAVHEAASPSQTVQRAVSVNPGK
modifications: additional N-linked glycan at the site made by R419N (NVT)
B2: the koff in test [5] turned out to be 0.000773 s⁻¹. Further, in test [6], the Kd turned out to be 2.26 nM.
